Test results reported in IntAct's records for PubMed 15161910.

B1: Serine/threonine-protein kinase Nek2 (Homo sapiens), P51955 (parent)
chain: MPSRAEDYEVLYTIGTGSYGRCQKIRRKSDGKILVWKELDYGSMTEAEKQMLVSEVNLLRELKHPNIVRYYDRIIDRTNTTLYIVMEYCEGGDLASVITKGTKERQYLDEEFVLRVMTQLTLALKECHRRSDGGHTVLHRDLKPANVFLDGKQNVKLGDFGLARILNHDTSFAKTFVGTPYYMSPEQMNRMSYNEKSDIWSLGCLLYELCALMPPFTAFSQKELAGKIREGKFRRIPYRYSDELNEIITRMLNLKDYHRPSVEEILENPLIADLVADEQRRNLERRGRQLGEPEKSQDSSPVLSELKLKEIQLQERERALKAREERLEQKEQELCVRERLAEDKLARAENLLKNYSLLKERKFLSLASNPELLNLPSSVIKKKVHFSGESKENIMRSENSESQLTSKSKCKDLKKRLHAAQLRAQALSDIEKNYQLKSRQILGMR
partner: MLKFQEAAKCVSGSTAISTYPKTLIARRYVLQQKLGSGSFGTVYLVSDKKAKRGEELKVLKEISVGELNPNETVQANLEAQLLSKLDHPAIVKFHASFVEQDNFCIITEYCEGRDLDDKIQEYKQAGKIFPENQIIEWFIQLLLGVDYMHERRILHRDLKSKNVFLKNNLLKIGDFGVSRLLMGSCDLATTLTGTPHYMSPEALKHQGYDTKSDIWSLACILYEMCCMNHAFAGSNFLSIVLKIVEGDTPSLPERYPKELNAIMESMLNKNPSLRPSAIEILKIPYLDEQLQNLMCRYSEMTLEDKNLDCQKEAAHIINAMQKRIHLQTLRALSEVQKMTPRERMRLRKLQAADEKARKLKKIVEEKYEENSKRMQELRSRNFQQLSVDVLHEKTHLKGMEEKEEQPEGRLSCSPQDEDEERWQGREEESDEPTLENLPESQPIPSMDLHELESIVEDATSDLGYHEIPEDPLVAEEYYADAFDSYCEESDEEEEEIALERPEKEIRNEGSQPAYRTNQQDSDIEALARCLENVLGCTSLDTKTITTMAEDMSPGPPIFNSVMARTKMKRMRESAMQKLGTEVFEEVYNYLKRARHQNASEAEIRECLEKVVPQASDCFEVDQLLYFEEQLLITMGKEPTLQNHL

Variants of: B1
Conditions: with nek11_human NEK11, Q8NG66

**Q.** How did the “effect of a mutation on the interaction” value turn out when K37R was run?
**A.** Its value is “decreasing interaction”.

Variants of: B1
Conditions: with nek11_human NEK11, Q8NG66
Remark: another data set of the same source

**Q.** K37R was tested. Which “effect of a mutation on the interaction” value did it give?
**A.** The value was “increasing interaction”.
